The target of assay [1] is human SIDT1 (hSIDT1) (human) (UniProt Q9NXL6). In words: cryo-EM structure; hSIDT1 at pH 5.5 (hSIDT1^pH5.5); homodimer, dimer interface rearranged against pH 7.5.
For assay [2] the target is unchanged. In words: cryo-EM structure; hSIDT1 at pH 7.5 (hSIDT1^pH7.5); cholesteryl hemisuccinate in the buffer during membrane solubilization; homodimer.

For one substance, stoichiometry N results are on record in PMC10879482.

Broadly, the stoichiometry N is a count of units in the complex or per binding partner. With “human SIDT1 (hSIDT1) (from UniProt Q9NXL6 20-827) (natural protein)”, the stoichiometry N in assay [1] and in assay [2] was 2 each time.
